{"source": "paper PMC11814294", "about": "(2025)", "binders": {"B1": {"name": "His-CHE (natural protein)", "chain": "not shown"}}, "target": "GST-His-ZTL (Arabidopsis thaliana, UniProt Q94BT6 1-609, RED-NHS 2nd Generation fluorescent label (in the MST assay only))", "sequence (Q94BT6 whole entry)": "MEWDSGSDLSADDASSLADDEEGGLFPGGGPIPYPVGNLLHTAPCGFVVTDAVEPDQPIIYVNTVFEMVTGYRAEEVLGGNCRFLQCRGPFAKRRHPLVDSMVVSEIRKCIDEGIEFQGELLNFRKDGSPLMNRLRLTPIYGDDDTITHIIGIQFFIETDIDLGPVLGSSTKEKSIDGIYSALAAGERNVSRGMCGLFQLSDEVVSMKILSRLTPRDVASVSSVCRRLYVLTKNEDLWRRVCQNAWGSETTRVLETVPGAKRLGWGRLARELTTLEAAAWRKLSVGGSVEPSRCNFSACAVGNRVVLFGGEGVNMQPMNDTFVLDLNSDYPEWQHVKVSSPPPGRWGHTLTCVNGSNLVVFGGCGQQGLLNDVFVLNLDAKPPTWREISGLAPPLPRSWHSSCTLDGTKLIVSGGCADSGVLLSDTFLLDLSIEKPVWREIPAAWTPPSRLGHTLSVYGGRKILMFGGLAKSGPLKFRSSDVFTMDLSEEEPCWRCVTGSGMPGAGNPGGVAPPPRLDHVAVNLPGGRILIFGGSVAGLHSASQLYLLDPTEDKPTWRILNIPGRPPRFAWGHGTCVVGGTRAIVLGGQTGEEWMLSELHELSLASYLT", "assay": "MST", "data": [{"binder": "B1", "values": [{"measurement": "Kd", "value": 190, "unit": "nM"}]}]}
